Experimental findings from patent publication US20150344570A1 (published 2015) are described below.

In assay [1] the target is T1, FcγRIIa R (FcγRIIa allotype with Arg at position 131), extracellular domain with C-terminal His tag (human, UniProt P12318 34-217).
T1 construct: extracellular domain; made in FreeStyle293 cells; analyte in the Biacore assay; also called FcγRIIa type R; 2aR
T1 sequence (looked up): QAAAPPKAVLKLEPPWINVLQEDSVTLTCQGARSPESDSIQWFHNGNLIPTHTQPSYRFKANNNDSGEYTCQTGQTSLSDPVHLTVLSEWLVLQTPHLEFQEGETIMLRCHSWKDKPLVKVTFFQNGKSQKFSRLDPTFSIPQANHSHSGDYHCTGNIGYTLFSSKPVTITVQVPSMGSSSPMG
The assay can be described thus: SPR (Biacore); He/Con_2aR divided by He/Con_2b, binding to FcγRIIa R against binding to FcγRIIb. Here is the method: The heterodimerized antibodies He Abs in which one of the H chains was introduced with an alteration were assayed for their binding activities to each activating FcγR and inhibitory FcγR according to the method described in Example 4. […] The activating FcγRs in FIGS. 26, 27, 28, and 29 are FcγRIa, FcγRIIa (R), FcγRIIa (H), and FcγRIIIa, respectively.
Analysis of interaction between objective antibody and the FcγR was carried out using Biacore T100 (GE Healthcare). HBS-EP+ (GE Healthcare) was used as the running buffer, and the measurement temperature was set to 25° C. Chips produced by immobilizing the antigen peptide by the amine coupling method to a Series S Sencor Chip CM5 (GE Healthcare), or alternatively, chips produced by allowing preliminarily biotinylated antigen peptides to interact with and immobilize onto a Series S Sensor Chip SA (certified) (GE Healthcare) were used. Antibodies of interest were captured onto an antigen peptide-immobilized chip, and allowed to interact to each FcγR diluted with running buffer. To regenerate and repeatedly use the chip, the antibodies captured on the chip were washed off by reacting 10 mM glycine-HCl, pH 1.5.
Background: SPR reads the build-up and loss of mass on a sensor chip optically.

Assay [2] concerns the target T1, FcγRIIa R (FcγRIIa allotype with Arg at …). The assay can be described thus: SPR (Biacore), antibody captured, FcγR analyte; vs GpH7-A5/GpH7-B3/GpL16-k0 = 100.
Assay [3] addresses T2, FcγRIIb, extracellular domain with C-terminal His tag (human, UniProt P31994 43-217).
T2 construct: extracellular domain; made in FreeStyle293 cells; analyte in the Biacore assay; also called 2b; FcgRIIb
T2 sequence (looked up): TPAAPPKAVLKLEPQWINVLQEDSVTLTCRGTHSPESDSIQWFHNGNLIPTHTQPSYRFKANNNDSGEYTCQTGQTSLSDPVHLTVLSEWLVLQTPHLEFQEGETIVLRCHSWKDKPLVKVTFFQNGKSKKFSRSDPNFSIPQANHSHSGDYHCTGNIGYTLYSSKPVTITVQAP
The assay is described as above.

B1: GpH7-A5/GpH7-B3 variant G236_02A/GpL16-k0 (antibody, human IgG1, kappa)
heavy 1: not shown
heavy 2: not shown
light: DIVMTQSPLSLPVTPGEPASISCQASESLVHSNRNTYLHWYLQKPGQSPQLLIYKVSNRFSGVPDRFSGSGSGTDFTLKISRVEAEDVGVYYCSQNTHVPPTFGQGTKVEIERTVAAPSVFIFPPSDEQLKSGTASVVCLLNNFYPREAKVQWKVDNALQSGNSQESVTEQDSKDSTYSLSSTLTLSKADYEKHKVYACEVTHQGLSSPVTKSFNRGEC
notes: heterodimerized IgG1, mutation in one H chain only; also called He Ab
For B1, the “He_2aR/2b (IIaR/IIb)” value in assay [1] was 1.51 ratio. In assay [2], the He/Con_2aR is 146 relative (HeCon Ab = 100). The He/Con_2b in assay [3] was 96.5 relative (HeCon Ab = 100).

B2: GpH7-A5/GpH7-B3 variant G236_14T/GpL16-k0 (antibody, human IgG1, kappa)
heavy 1: not shown
heavy 2: not shown
light: DIVMTQSPLSLPVTPGEPASISCQASESLVHSNRNTYLHWYLQKPGQSPQLLIYKVSNRFSGVPDRFSGSGSGTDFTLKISRVEAEDVGVYYCSQNTHVPPTFGQGTKVEIERTVAAPSVFIFPPSDEQLKSGTASVVCLLNNFYPREAKVQWKVDNALQSGNSQESVTEQDSKDSTYSLSSTLTLSKADYEKHKVYACEVTHQGLSSPVTKSFNRGEC
notes: as for B1
Consider B2, for which the “He_2aR/2b (IIaR/IIb)” value in assay [1] is 1.78 ratio. Further, the He/Con_2aR in assay [2] was 103 relative (HeCon Ab = 100). Besides, in assay [3], the He/Con_2b was 57.8 relative (HeCon Ab = 100).

B3: GpH7-A5/GpH7-B3 variant G236_08L/GpL16-k0 (antibody, human IgG1, kappa)
heavy 1: not shown
heavy 2: not shown
light: DIVMTQSPLSLPVTPGEPASISCQASESLVHSNRNTYLHWYLQKPGQSPQLLIYKVSNRFSGVPDRFSGSGSGTDFTLKISRVEAEDVGVYYCSQNTHVPPTFGQGTKVEIERTVAAPSVFIFPPSDEQLKSGTASVVCLLNNFYPREAKVQWKVDNALQSGNSQESVTEQDSKDSTYSLSSTLTLSKADYEKHKVYACEVTHQGLSSPVTKSFNRGEC
notes: as for B1
As for B3, the “He_2aR/2b (IIaR/IIb)” value in assay [1] was determined as 2.45 ratio. For the same molecule, in assay [2], the He/Con_2aR is 65.8 relative (HeCon Ab = 100). For the same molecule, the He/Con_2b in assay [3] was 26.8 relative (HeCon Ab = 100).

B4: GpH7-A5/GpH7-B3 variant G236_12R/GpL16-k0 (antibody, human IgG1, kappa)
heavy 1: not shown
heavy 2: not shown
light: DIVMTQSPLSLPVTPGEPASISCQASESLVHSNRNTYLHWYLQKPGQSPQLLIYKVSNRFSGVPDRFSGSGSGTDFTLKISRVEAEDVGVYYCSQNTHVPPTFGQGTKVEIERTVAAPSVFIFPPSDEQLKSGTASVVCLLNNFYPREAKVQWKVDNALQSGNSQESVTEQDSKDSTYSLSSTLTLSKADYEKHKVYACEVTHQGLSSPVTKSFNRGEC
notes: as for B1
Regarding B4, the “He_2aR/2b (IIaR/IIb)” value in assay [1] was 3.55 ratio. In addition, in assay [2], the He/Con_2aR was 24.1 relative (HeCon Ab = 100). The He/Con_2b in assay [3] is 6.8 relative (HeCon Ab = 100).

B5: GpH7-A5/GpH7-B3 variant L234_01G/GpL16-k0 (antibody, human IgG1, kappa)
heavy 1: not shown
heavy 2: not shown
light: DIVMTQSPLSLPVTPGEPASISCQASESLVHSNRNTYLHWYLQKPGQSPQLLIYKVSNRFSGVPDRFSGSGSGTDFTLKISRVEAEDVGVYYCSQNTHVPPTFGQGTKVEIERTVAAPSVFIFPPSDEQLKSGTASVVCLLNNFYPREAKVQWKVDNALQSGNSQESVTEQDSKDSTYSLSSTLTLSKADYEKHKVYACEVTHQGLSSPVTKSFNRGEC
notes: as for B1
Take B5: the “He_2aR/2b (IIaR/IIb)” value in assay [1] came out at 1.23 ratio. The He/Con_2aR in assay [2] was 62.3 relative (HeCon Ab = 100). Moreover, the He/Con_2b in assay [3] was 50.7 relative (HeCon Ab = 100).

B6: GpH7-A5/GpH7-B3 variant G236_05P/GpL16-k0 (antibody, human IgG1, kappa)
heavy 1: not shown
heavy 2: not shown
light: DIVMTQSPLSLPVTPGEPASISCQASESLVHSNRNTYLHWYLQKPGQSPQLLIYKVSNRFSGVPDRFSGSGSGTDFTLKISRVEAEDVGVYYCSQNTHVPPTFGQGTKVEIERTVAAPSVFIFPPSDEQLKSGTASVVCLLNNFYPREAKVQWKVDNALQSGNSQESVTEQDSKDSTYSLSSTLTLSKADYEKHKVYACEVTHQGLSSPVTKSFNRGEC
notes: as for B1
For B6, the “He_2aR/2b (IIaR/IIb)” value in assay [1] amounted to 2.52 ratio. Besides, the He/Con_2aR in assay [2] is 47.9 relative (HeCon Ab = 100). For the same molecule, the He/Con_2b in assay [3] was 19 relative (HeCon Ab = 100).

B7: GpH7-A5/GpH7-B3 variant L234_05P/GpL16-k0 (antibody, human IgG1, kappa)
heavy 1: not shown
heavy 2: not shown
light: DIVMTQSPLSLPVTPGEPASISCQASESLVHSNRNTYLHWYLQKPGQSPQLLIYKVSNRFSGVPDRFSGSGSGTDFTLKISRVEAEDVGVYYCSQNTHVPPTFGQGTKVEIERTVAAPSVFIFPPSDEQLKSGTASVVCLLNNFYPREAKVQWKVDNALQSGNSQESVTEQDSKDSTYSLSSTLTLSKADYEKHKVYACEVTHQGLSSPVTKSFNRGEC
notes: as for B1
Regarding B7, the “He_2aR/2b (IIaR/IIb)” value in assay [1] worked out at 1.23 ratio. Moreover, in assay [2], the He/Con_2aR is 89.6 relative (HeCon Ab = 100). Besides, the He/Con_2b in assay [3] is 72.9 relative (HeCon Ab = 100).

B8: GpH7-A5/GpH7-B3 variant G236_03V/GpL16-k0 (antibody, human IgG1, kappa)
heavy 1: not shown
heavy 2: not shown
light: DIVMTQSPLSLPVTPGEPASISCQASESLVHSNRNTYLHWYLQKPGQSPQLLIYKVSNRFSGVPDRFSGSGSGTDFTLKISRVEAEDVGVYYCSQNTHVPPTFGQGTKVEIERTVAAPSVFIFPPSDEQLKSGTASVVCLLNNFYPREAKVQWKVDNALQSGNSQESVTEQDSKDSTYSLSSTLTLSKADYEKHKVYACEVTHQGLSSPVTKSFNRGEC
notes: as for B1
As to B8, the “He_2aR/2b (IIaR/IIb)” value in assay [1] stood at 2.6 ratio. In addition, the He/Con_2aR in assay [2] is 91.6 relative (HeCon Ab = 100). Also, the He/Con_2b in assay [3] was 35.3 relative (HeCon Ab = 100).

B9: GpH7-A5/GpH7-B3 variant G236_13S/GpL16-k0 (antibody, human IgG1, kappa)
heavy 1: not shown
heavy 2: not shown
light: DIVMTQSPLSLPVTPGEPASISCQASESLVHSNRNTYLHWYLQKPGQSPQLLIYKVSNRFSGVPDRFSGSGSGTDFTLKISRVEAEDVGVYYCSQNTHVPPTFGQGTKVEIERTVAAPSVFIFPPSDEQLKSGTASVVCLLNNFYPREAKVQWKVDNALQSGNSQESVTEQDSKDSTYSLSSTLTLSKADYEKHKVYACEVTHQGLSSPVTKSFNRGEC
notes: as for B1
As for B9, the “He_2aR/2b (IIaR/IIb)” value in assay [1] stood at 1.41 ratio. Also, the He/Con_2aR in assay [2] was 136 relative (HeCon Ab = 100). In addition, in assay [3], the He/Con_2b was 96.7 relative (HeCon Ab = 100).

B10: GpH7-A5/GpH7-B3 variant G236_06M/GpL16-k0 (antibody, human IgG1, kappa)
heavy 1: not shown
heavy 2: not shown
light: DIVMTQSPLSLPVTPGEPASISCQASESLVHSNRNTYLHWYLQKPGQSPQLLIYKVSNRFSGVPDRFSGSGSGTDFTLKISRVEAEDVGVYYCSQNTHVPPTFGQGTKVEIERTVAAPSVFIFPPSDEQLKSGTASVVCLLNNFYPREAKVQWKVDNALQSGNSQESVTEQDSKDSTYSLSSTLTLSKADYEKHKVYACEVTHQGLSSPVTKSFNRGEC
notes: as for B1
With B10, the “He_2aR/2b (IIaR/IIb)” value in assay [1] was 1.26 ratio. The He/Con_2aR in assay [2] is 57.3 relative (HeCon Ab = 100). In assay [3], the He/Con_2b was 45.5 relative (HeCon Ab = 100).

B11: GpH7-A5/GpH7-B3 variant L234_02A/GpL16-k0 (antibody, human IgG1, kappa)
heavy 1: not shown
heavy 2: not shown
light: DIVMTQSPLSLPVTPGEPASISCQASESLVHSNRNTYLHWYLQKPGQSPQLLIYKVSNRFSGVPDRFSGSGSGTDFTLKISRVEAEDVGVYYCSQNTHVPPTFGQGTKVEIERTVAAPSVFIFPPSDEQLKSGTASVVCLLNNFYPREAKVQWKVDNALQSGNSQESVTEQDSKDSTYSLSSTLTLSKADYEKHKVYACEVTHQGLSSPVTKSFNRGEC
notes: as for B1
Regarding B11, the “He_2aR/2b (IIaR/IIb)” value in assay [1] amounted to 1.23 ratio. The He/Con_2aR in assay [2] was 79.6 relative (HeCon Ab = 100). Moreover, the He/Con_2b in assay [3] is 64.9 relative (HeCon Ab = 100).

B12: GpH7-A5/GpH7-B3 variant G236_04F/GpL16-k0 (antibody, human IgG1, kappa)
heavy 1: not shown
heavy 2: not shown
light: DIVMTQSPLSLPVTPGEPASISCQASESLVHSNRNTYLHWYLQKPGQSPQLLIYKVSNRFSGVPDRFSGSGSGTDFTLKISRVEAEDVGVYYCSQNTHVPPTFGQGTKVEIERTVAAPSVFIFPPSDEQLKSGTASVVCLLNNFYPREAKVQWKVDNALQSGNSQESVTEQDSKDSTYSLSSTLTLSKADYEKHKVYACEVTHQGLSSPVTKSFNRGEC
notes: as for B1
Regarding B12, the “He_2aR/2b (IIaR/IIb)” value in assay [1] was 1.35 ratio. Also, in assay [2], the He/Con_2aR is 53.1 relative (HeCon Ab = 100). In addition, the He/Con_2b in assay [3] is 39.3 relative (HeCon Ab = 100).

B13: GpH7-A5/GpH7-B3 variant G236_07I/GpL16-k0 (antibody, human IgG1, kappa)
heavy 1: not shown
heavy 2: not shown
light: DIVMTQSPLSLPVTPGEPASISCQASESLVHSNRNTYLHWYLQKPGQSPQLLIYKVSNRFSGVPDRFSGSGSGTDFTLKISRVEAEDVGVYYCSQNTHVPPTFGQGTKVEIERTVAAPSVFIFPPSDEQLKSGTASVVCLLNNFYPREAKVQWKVDNALQSGNSQESVTEQDSKDSTYSLSSTLTLSKADYEKHKVYACEVTHQGLSSPVTKSFNRGEC
notes: as for B1
On to B13, for which the “He_2aR/2b (IIaR/IIb)” value in assay [1] stood at 2.81 ratio. Besides, the He/Con_2aR in assay [2] was 87.1 relative (HeCon Ab = 100). The He/Con_2b in assay [3] was 31 relative (HeCon Ab = 100).
